Experimental data: the supplement of paper PMC10567573

B1: MYL5 (parent)
chain: FQFASIDVAGNLDYKALSYVITHG
B2: TRIM9 (parent)
chain: CVQCKMPVCYQCLEEGKHSSHEVK

Variants of: B1
Test: protein stability index of a GFP-peptide fusion (GPS, HEK-293T) (PSI 1-6); higher = more stable
Conditions: c terminus: a fixed tail appended
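Note: lentivirally expressed fusions sorted by FACS into six bins by GFP to DsRed ratio, PSI derived from sequencing read proportions per bin multiplied by bin number.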

Protein stability index, by site and new letter:
F1: N 1.61, P 2.79, E 1.23, I 3.26, V 3.25, D 1.43, T 1.55, L 1.89, K 1.27, W 3.55, R 1.67, Y 2.68, H 1.79, Q 2.23, A 1.63, C 3.5, S 1.18, G 2.09
F3: G 3, Y 2.59, A 2.17, E 1.56, T 1.22, N 1.36, M 2.36, R 1.75, V 2.75, I 2.29, D 1.34, H 2.11, K 1.43, S 1.93, P 2.84, C 2.41, Q 2.32
A4: E 2.51, D 1.9, F 2.42
Q2: T 2.75, P 3.25, A 1.56, F 2.36, N 3.37, V 3.19, R 4.64, C 3.59, K 2.89, H 2.06, G 3.54, E 4.45, M 2.75, L 2.78, D 4.24

Variants of: B2
Test: as above
Conditions: c terminus: a fixed tail appended

Protein stability index of substitutions, site by site:
H18: W 3.04, Y 3.55
E22: D 3.29, G 3.32, V 4.17, W 3.11, R 3.12, S 3.68, P 3.33, F 3.56, K 4.31, I 3.8, Y 3.28, H 3.79, L 3.74, C 4.27, T 4, N 3.67, M 3.65, Q 2.73, A 3.57
S20: A 3.68, H 4.3, L 4.43, R 4.38, I 2.9, Q 4.29, M 4, V 3.75, N 3.69, F 2.59, E 3.98, D 4.3, P 4.13, C 4.32, K 4.26, T 4.07, Y 3.24
S19: C 3.85, E 4.62, L 3.89, N 4.38, P 4.17, I 3.4, V 3.86, K 3.9, Q 4.51, D 3.8, T 4.25, H 3.45, G 3.67, A 4.41, F 3.37, M 3.72, Y 3.1, W 3.35, R 3.73
V23: Y 3.46, M 4, F 3.65, T 3.84, I 3.7, R 3.24, G 3.84, L 3.16, P 4.24, A 4.37, S 3.37, C 4.65, D 4.44, N 3.98, Q 3.85, H 3.32, W 3.38, E 4.28, K 3.68
K24: V 3.8, T 3.7, G 3.19, E 4.59, W 2.88, I 2.95, M 3.68, H 3.92, Y 3.41, P 3.62, L 3.8, F 2.85, N 3.89, Q 3.96, R 3.46, C 4.97, S 3.71, D 4.73, A 4.28
H21: K 3.76, S 3.54, E 4.57, Y 3.14, T 4.47, C 4.1, F 2.88, V 4.05, G 4.16, W 2.96, M 3.7, P 4.08, R 3.36, I 3.66, D 3.88, L 3.87, Q 4.16, N 3.75, A 3.15
